Test results: IntAct's records for PubMed 15105431

B1: T-cell surface antigen CD2 (Homo sapiens), P06729 (parent)
chain: MSFPCKFVASFLLIFNVSSKGAVSKEITNALETWGALGQDINLDIPSFQMSDDIDDIKWEKTSDKKKIAQFRKEKETFKEKDTYKLFKNGTLKIKHLKTDDQDIYKVSIYDTKGKNVLEKIFDLKIQERVSKPKISWTCINTTLTCEVMNGTDPELNLYQDGKHLKLSQRVITHKWTTSLSAKFKCTAGNKVSKESSVEPVSCPEKGLDIYLIIGICGGGSLLMVFVALLVFYITKRKKQRSRRNDEELETRAHRVATEERGRKPHQIPASTPQNPATSQHPPPPPGHRSQAPSHRPPPPGHRVQHQPQKRPPAPSGTQVHQQKGPPLPRPRVQPKPPHGAAENSLSPSSN
partner: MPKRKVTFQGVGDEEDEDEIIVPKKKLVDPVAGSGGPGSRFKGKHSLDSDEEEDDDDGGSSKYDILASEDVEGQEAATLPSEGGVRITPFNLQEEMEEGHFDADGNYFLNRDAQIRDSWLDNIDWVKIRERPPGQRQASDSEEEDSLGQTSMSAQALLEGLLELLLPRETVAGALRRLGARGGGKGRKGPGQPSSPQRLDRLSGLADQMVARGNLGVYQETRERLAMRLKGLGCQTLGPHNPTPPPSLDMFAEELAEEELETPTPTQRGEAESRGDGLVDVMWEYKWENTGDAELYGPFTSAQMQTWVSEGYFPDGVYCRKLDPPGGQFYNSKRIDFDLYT

Variants of: B1
Conditions: with cd2b2_human CD2BP2, O95400

Effect of a mutation on the interaction: each site, then its substitutions
V304: E decreasing interaction strength | D decreasing interaction strength | C decreasing interaction strength | W decreasing interaction strength
R303: Y disrupting interaction strength | P decreasing interaction strength | W disrupting interaction strength | H decreasing interaction strength | C disrupting interaction strength | F decreasing interaction strength | V disrupting interaction strength | N decreasing interaction strength | Q decreasing interaction strength | M decreasing interaction strength | T disrupting interaction strength | L decreasing interaction strength | G disrupting interaction strength | S disrupting interaction strength | D disrupting interaction strength | E disrupting interaction strength | I decreasing interaction strength
